B1: Hu303-004 (antibody, human IgG4 S228P, kappa, V domains shown)
VH: QVQLVQSGAEVKKPGASVKVSCKASGYTFTDYYMNWVRQAPGQRLEWMGVINPYNGDTAYNQKFKGRVTITRDTSASTAYMELSSLRSEDTAVYYCARDDGYYDYYFDVWGQGTTVTVSS
VL: DIQMTQSPSSLSASVGDRVTITCRASQDIGSRLNWYQQKPGKAPKLLIYATSTLDSGVPSRFSGSGSGTDFTLTISSLQPEDFATYYCLQLASSPPTFGGGTKVEIKR
notes: Humanized mAb303
B2: Hu303-016 (antibody, human IgG4 S228P, kappa, V domains shown)
VH: B1 VH with F29L, R72V, T74K, A97T
VL: B1 VL with L46R, S60K, G66R
notes: Humanized mAb303
B3: Hu303-005 (antibody, human IgG4 S228P, kappa, V domains shown)
VH: B1 VH
VL: B1 VL with L46R, G66R
notes: also called LAG-3 antibody Hu303-005; LAG3 antibody Hu303-005
B4: Hu303-014 (antibody, human IgG4 S228P, kappa, V domains shown)
VH: B1 VH with F29L, R72V, T74K, A97T
VL: B1 VL
notes: Humanized mAb303
B5: Hu303-020 (antibody, human IgG4 S228P, kappa, V domains shown)
VH: B1 VH with F29L, M48I, V68A, I70L, R72V, T74K, A97T
VL: B1 VL with L46R, G66R
notes: Humanized mAb303
B6: Hu303-022 (antibody, human IgG4 S228P, kappa, V domains shown)
VH: B1 VH with F29L, M48I, V68A, I70L, R72V, T74K, A97T
VL: B1 VL with Y36L, P44F, L46R, S60K, G66R
notes: Humanized mAb303
B7: Hu303-006 (antibody, human IgG4 S228P, kappa, V domains shown)
VH: B1 VH
VL: B1 VL with L46R, S60K, G66R
notes: Humanized mAb303
B8: Hu303-009 (antibody, human IgG4 S228P, kappa, V domains shown)
VH: B1 VH with R72V, T74K, A97T
VL: B1 VL
notes: Humanized mAb303
B9: Hu303-021 (antibody, human IgG4 S228P, kappa, V domains shown)
VH: B1 VH with F29L, M48I, V68A, I70L, R72V, T74K, A97T
VL: B1 VL with L46R, S60K, G66R
notes: Humanized mAb303
B10: Hu303-023 (antibody, human IgG4 S228P, kappa, V domains shown)
VH: B1 VH with F29L, M48I, V68A, I70L, R72V, T74K, A97T
VL: B1 VL with I21L, Y36L, K42G, P44F, L46R, S60K, G66R, T85D
notes: Humanized mAb303
B11: Hu303-019 (antibody, human IgG4 S228P, kappa, V domains shown)
VH: B1 VH with F29L, M48I, V68A, I70L, R72V, T74K, A97T
VL: B1 VL
notes: Humanized mAb303
B12: Hu303-018 (antibody, human IgG4 S228P, kappa, V domains shown)
VH: B1 VH with F29L, R72V, T74K, A97T
VL: B1 VL with I21L, Y36L, K42G, P44F, L46R, S60K, G66R, T85D
notes: Humanized mAb303
B13: Hu303-017 (antibody, human IgG4 S228P, kappa, V domains shown)
VH: B1 VH with F29L, R72V, T74K, A97T
VL: B1 VL with Y36L, P44F, L46R, S60K, G66R
notes: Humanized mAb303
B14: Hu229-011 (antibody, human IgG4 S228P, kappa, V domains shown)
VH: QVQLVQSGSELKKPGASVKVSCKASGYTFTTSGMSWVRQAPGQGLKWMGWINTYSGVPTYADDFKGRFVFSLDTSVSTAYLQISSLKAEDTAVYYCARDNYDARDVYYYAMDYWGQGTTVTVSS
VL: DIQMTQSPSSLSASVGDRVTITCRASENIYSNLAWYQQKPGKSPKLLVYAATNLADGVPSRFSGSGSGTQYTLTISSLQPEDFATYYCQHFWITPWTFGGGTKVEIKR
notes: Humanized mAb229
B15: Hu229-016 (antibody, human IgG4 S228P, kappa, V domains shown)
VH: B14 VH with R38K, V93T, Y95F
VL: B14 VL with S43A, V48I, Q70D, Y71F
notes: Humanized mAb229

Substitutions are numbered along the chain they refer to.

In one test the target is T1, Fusion protein of LAG-3 extracellular region and hIgG1 Fc (human).
T1 construct: Limits of the signal peptide are marked only by lost underlining; also called LAG-3-Fc; LAG-3-Fc fusion protein
Description: competition: biotin-LAG-3-Fc binding to fixed Daudi cells, antibody titrated. On the procedure:
Daudi cells (human leukemia cells, purchased from the cell bank in Chinese Academy of Sciences) were seeded in 96-well plate with a density of 3×10⁵/well. After centrifugation at 1000 rpm, the supernatant was discarded and then the plate was fixed with 4% PFA for 30 min at room temperature. The plate was washed 4 times with PBS after discarding the fixed solution, and the plate was blocked with 200 μl/well of blocking solution containing 5% skim milk (Bright Dairy, skim milk powder) diluted in PBS, and incubated at 37° C. for 2.5 hours. After blocking, the blocking solution was discarded and the plate was washed 5 times with PBST buffer (pH7.4 PBS containing 0.05% tween-20), added with 50 μl/well mixture of biotin-labeled (Biotin labeling kit, Dojindo Chemical, Cat No. LK03) LAG-3-Fc fusion protein (produced in-house, SEQ ID NO: 3) and gradient concentrations of the antibody to be tested, wherein the biotin-labeled LAG-3-Fc fusion protein has been diluted with sample diluent (PH7.4 PBS containing 1% BSA) at a final concentration of 0.4 μg/ml, and pre-mixed for an hour, then the plate was incubated at 37° C. for 1 h. The reaction solution was discarded and the plate was washed 5 times with PBST after incubation, 50 μl/well of HRP-labeled Streptavidin (Sigma, Cat No. 52438) diluted with sample diluent was added, and the plate was incubated at 37° C. for 1 h. After washing the plate 5 times with PBST, 50 μl/well of TMB chromogenic substrate (KPL, Cat No. 52-00-03) was added to each well, and incubated at room temperature for 5-15 min, the reaction was stopped by the addition of 50 μl 1M H₂SO₄ to each well. The OD value at a wavelength of 450 nm was read on NOVOStar microplate reader, and then the activity of the LAG-3 antibody in blocking the binding of the antigen to Daudi cells was calculated.
B1 yielded an IC50 of 0.502 nM.

Regarding B2, the IC50 is 0.395 nM.

B3 showed an IC50 of 0.622 nM.

The molecule B4 registered an IC50 of 0.467 nM.

In turn, B5 returned a half-inhibitory concentration (IC50) of 0.345 nM.

Consider B6, for which the IC50 amounted to 0.36 nM.

On to B7, for which the 50% inhibitory concentration (IC50) is 0.821 nM.

As for B8, the concentration for half-maximal inhibition (IC50) stood at 0.417 nM.

Regarding B9, the IC50 was determined as 0.456 nM.

As to B10, the IC50 was found to be 0.369 nM.

Molecule B11 had an IC50 of 0.471 nM. The IC50 values of the last two molecules are within 1.5-fold of each other.

Molecule B12 returned an IC50 of 0.608 nM. This IC50 and that of the molecule before are within 1.5-fold of each other.

The molecule B13 showed an IC50 of 0.398 nM.

Regarding B14, the IC50 came to 0.566 nM.

As to B15, the half-maximal inhibitory concentration (IC50) was found to be 0.875 nM. Against the preceding molecule, the IC50 is about 1.5-fold higher.

The next test concerns the target T2, LAG-3 extracellular domain with a Flag tag (human, UniProt P18627 23-434).
T2 construct: also called LAG-3-Flag; LAG-3-Flag antigen
T2 sequence: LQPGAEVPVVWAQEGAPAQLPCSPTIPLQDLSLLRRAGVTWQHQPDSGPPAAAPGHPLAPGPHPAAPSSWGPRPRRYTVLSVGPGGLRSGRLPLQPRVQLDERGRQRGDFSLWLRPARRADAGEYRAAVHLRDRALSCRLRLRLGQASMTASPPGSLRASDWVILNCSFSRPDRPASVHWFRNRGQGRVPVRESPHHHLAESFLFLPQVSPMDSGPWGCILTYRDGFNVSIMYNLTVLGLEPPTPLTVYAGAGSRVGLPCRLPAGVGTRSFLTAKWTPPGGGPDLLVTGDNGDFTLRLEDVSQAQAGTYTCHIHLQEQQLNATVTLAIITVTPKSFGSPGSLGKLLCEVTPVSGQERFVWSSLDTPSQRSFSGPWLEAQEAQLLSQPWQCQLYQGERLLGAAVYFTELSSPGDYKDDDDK
Description: SPR (Biacore), antibody captured on anti-human capture chip, LAG-3-Flag in flow. An excerpt:
2. […] Then, the LAG-3-Flag antigen (produced in-house, SEQ ID NO:1) was flowed through the surface of the biochip, and the reaction signal was detected real time using a Biacore instrument to obtain the binding and dissociation curves, the value of affinity was obtained by fitting, see table 10 below. After each cycle of dissociation was finished in the experiment, the biochip was washed and regenerated with a regeneration solution provided in the human anti-capture kit.
Take B1: the Kd was 1.06 nM.

For B2, binding was characterised by a dissociation constant (Kd) of 0.0748 nM.

Turning to B3, the equilibrium dissociation constant (Kd) was 0.0715 nM.

As for B4, the equilibrium dissociation constant (Kd) came out at 0.491 nM. This Kd is about 6.9-fold higher than that of the molecule before.

With B7, the dissociation constant (Kd) was 0.0753 nM.

B8 had a dissociation constant Kd of 0.943 nM.

The next test has as its target T3, Fusion protein of LAG-3 extracellular region and mIgG2a Fc (human).
T3 construct: Limits of the signal peptide are marked only by lost underlining; also called LAG-3-mFc; LAG-3-mFc fusion protein
T3 chain: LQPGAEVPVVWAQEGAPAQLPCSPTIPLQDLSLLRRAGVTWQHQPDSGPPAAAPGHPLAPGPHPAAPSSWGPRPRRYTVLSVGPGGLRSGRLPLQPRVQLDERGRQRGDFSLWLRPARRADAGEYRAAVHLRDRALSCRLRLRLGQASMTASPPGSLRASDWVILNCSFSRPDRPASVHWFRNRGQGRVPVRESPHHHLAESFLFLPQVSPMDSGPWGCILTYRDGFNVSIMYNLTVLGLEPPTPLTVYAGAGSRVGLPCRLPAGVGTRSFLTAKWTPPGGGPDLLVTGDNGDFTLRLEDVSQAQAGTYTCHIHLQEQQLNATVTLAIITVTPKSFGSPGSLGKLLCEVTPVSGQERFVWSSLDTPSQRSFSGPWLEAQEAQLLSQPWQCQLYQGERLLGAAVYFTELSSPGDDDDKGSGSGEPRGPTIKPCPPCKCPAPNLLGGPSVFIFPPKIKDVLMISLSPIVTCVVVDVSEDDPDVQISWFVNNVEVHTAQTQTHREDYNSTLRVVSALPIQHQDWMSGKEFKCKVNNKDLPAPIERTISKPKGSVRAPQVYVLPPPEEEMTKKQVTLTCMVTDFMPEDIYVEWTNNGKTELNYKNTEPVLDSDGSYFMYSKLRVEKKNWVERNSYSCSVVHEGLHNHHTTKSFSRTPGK
Description: ELISA, LAG-3-mFc captured by anti-mouse Fc on plate (which fusion: inferred). An excerpt: The binding ability of anti-LAG-3 antibody to human LAG-3 protein was detected by ELISA assay. LAG-3 fusion protein with Fc or mFc tag was immobilized into 96-well microtiter plate by binding to anti-Fc or anti-mFc antibody coated on the microtiter plate, the strength of the signal after the addition of the antibody was used to determine the binding activity of the antibody to LAG-3, the specific experimental method is as follows.
The goat anti-human Fc antibody (Jackson Immuno Research, Cat No. 109-005-008) or goat anti-mouse Fc antibody (Sigma, Cat No. M3534-1ML) was diluted to a concentration of 2 μg/ml with PBS buffer at pH 7.4 (Sigma, Cat No. P4417-100TAB), and added to a 96-well plate at a volume of 50 μl/well and then, the plate was incubated in the incubator at 37° C. for 2 hours. After discarding the liquid, the plates were blocked with 200 μl/well of blocking solution containing 5% skim milk (Bright Dairy, skim milk powder) in PBS, and incubated in the incubator at 37° C. for 2.5 hours or overnight at 4° C. (16-18 hours). After blocking, the blocking solution was discarded and the plate was washed 5 times with PBST buffer (PH7.4 PBS containing 0.05% tween-20). LAG-3-Fc fusion protein (SEQ ID NO:3, produced in-house) or LAG-3-mFc fusion protein (SEQ ID NO: 4, produced in-house) was diluted with sample diluent (PH7.4 PBS containing 1% BSA) to 1 μg/ml and was added to each well, 50 μl/well. Then the plate was incubated in the incubator at 37° C. for 1 h or overnight at 4° C. After incubation, the reaction solution in the plate was discarded, and the plate was washed with PBST for 6 times, and then was added with 50 μl/well of various concentrations of antibodies to be tested (hybridoma purified antibody or humanized antibody) which have been diluted with sample diluent, and the plate was incubated at 37° C. for 1 h. The plates was washed 5 times with PBST after incubation, and was added with 100 μl/well of goat anti-mouse (Jackson Immuno Research, Cat No. 115-035-003) or goat anti-human secondary antibody (Jackson Immuno Research, Cat No. 109-035-003) labeled with HRP, diluted in sample diluent, and the plate was incubated at 37° C. for 1 h.
As to B1, a half-maximal response (EC50) required 0.278 nM.

As for B2, the EC50 was found to be 0.161 nM.

Turning to B3, the concentration giving a half-maximal response (EC50) was 0.309 nM.

B4 came in with an EC50 of 0.232 nM.

Molecule B5 showed a concentration giving a half-maximal response (EC50) of 0.14 nM.

Take B6: it took 0.145 nM to reach a half-maximal effect (EC50).

The molecule B7 had a half-maximal effective concentration (EC50) of 0.288 nM.

Molecule B8 gave an EC50 of 0.316 nM.

Consider B9, for which the response was half-maximal at 0.17 nM (EC50).

The molecule B10 came in with a concentration giving a half-maximal response (EC50) of 0.152 nM.

B11 came in with a concentration giving a half-maximal response (EC50) of 0.277 nM. Compared with the last molecule, the EC50 is about 1.8-fold higher.

In the case of B12, a half-maximal response (EC50) required 0.244 nM.

Consider B13, for which it took 0.168 nM to reach a half-maximal effect (EC50). This EC50 and that of the molecule before are within 1.5-fold of each other.

B14 yielded an EC50 of 0.201 nM.

On to B15, for which a half-maximal response (EC50) required 0.154 nM.

Broadly, the IC50 is the concentration that gives 50% inhibition. A lower IC50 goes with greater potency in that assay. As a reminder, the Kd is the concentration at which binding is half-saturated. Low values mean a tighter complex, high ones a looser complex. In general, EC50 refers to the concentration at which the effect is half-maximal. Read a low EC50 as a more potent agent.

Source of the values: patent US20220031842A1 (JIANGSU HENGRUI MEDICINE, published 2022).
